In the assay the target is T1, 重组PE免疫毒素 (recombinant Pseudomonas exotoxin A, partial sequence) (Pseudomonas aeruginosa (绿脓杆菌), UniProt P11439 173-638).
T1 construct: also called 重组PE抗原; 重组蛋白PE
T1 sequence: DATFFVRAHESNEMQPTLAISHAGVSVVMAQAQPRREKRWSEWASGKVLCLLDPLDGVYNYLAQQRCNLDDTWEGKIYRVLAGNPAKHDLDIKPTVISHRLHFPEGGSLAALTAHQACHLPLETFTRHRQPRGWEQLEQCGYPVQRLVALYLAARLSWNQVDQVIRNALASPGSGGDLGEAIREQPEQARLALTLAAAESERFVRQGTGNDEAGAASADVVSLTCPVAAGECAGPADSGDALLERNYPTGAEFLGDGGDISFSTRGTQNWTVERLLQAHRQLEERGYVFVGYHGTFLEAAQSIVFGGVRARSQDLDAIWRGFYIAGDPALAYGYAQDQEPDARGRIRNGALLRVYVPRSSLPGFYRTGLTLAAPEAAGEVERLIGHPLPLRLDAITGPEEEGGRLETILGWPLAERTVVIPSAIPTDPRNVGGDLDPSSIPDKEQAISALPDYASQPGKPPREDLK
In words: SPR, Biacore T100, 1:1 binding fit. In general terms: In SPR one partner is held on a chip, and binding of the other changes the refractive index at the surface.

Results on 2 molecules are retold here after CN107827981A (SHENZHEN GUOCHUANG NANOMETER ANTIBODY TECH CO LTD, dated 2018).

Broadly, the Kd is a measure of binding affinity in units of concentration.

B1: 纳米抗体VHH-PE 2 (VHH)
chain: ESGGGLVQAGGSLRLSGVASRRTFCNYLDAMGWLSLVTGKERELVAHITGNRGDVMYLDSVKAGSTISRVKTNSTVYLQMNSMKPEDTHVYYWAPKATGFFSPKEEEKYNWWGQGTQ
As for B1, the Kd is 4.85 nM.

B2: 纳米抗体VHH-PE 1 (VHH)
VHH: ESGGGLVQAGGSLRLSCAASGRTFSSTGHTFSSYAMGWFRQTPGKEREFVAAISWSGTSTYYADSVKGRFTISRDNAKNTVYLQMNSLKPEDTAVYYCAARFWDYGLGSSDLKSPREYDYWGQGTQ
Take B2: the dissociation constant Kd came out at 12.2 nM.
